According to the supplement of paper PMC5998384:

Columns and labels:
[1] = system: HeLa Kyoto; experiment: melting temperature (median over replicates), in situ; higher = more thermally stable
[2] = system: HeLa Kyoto; experiment: solubility change mitosis vs G1/S (difference of NP-40 vs SDS log2 ratios) (log2 ratio difference); higher = more soluble in mitosis
[3] = system: HeLa Kyoto; experiment: solubility in G1/S (NP-40 vs SDS abundance) (log2 ratio); higher = more soluble; conditions: cell cycle stage: G1/S
[4] = system: HeLa Kyoto; experiment: thermal stability score vs G1/S (z-score of summed log2 fold changes over temperatures); higher = more thermally stable than in G1/S
[5] = cell cycle stage: early G1 (4.5 h after nocodazole release)
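For melting temperature (median over replicates), in situ in this document: HeLa Kyoto cells synchronized by double thymidine or nocodazole block, proteins quantified by TMT10plex mass spectrometry, three independent biological replicates.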
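For solubility change mitosis vs G1/S (difference of NP-40 vs SDS log2 ratios) in this document: synchronized HeLa Kyoto cells (double thymidine block for G1/S, nocodazole release for mitosis), protein amounts in NP-40 versus SDS lysates quantified by mass spectrometry, three biological replicates.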
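For solubility in G1/S (NP-40 vs SDS abundance) in this document: HeLa Kyoto cells arrested at G1/S by double thymidine block, proteins quantified by TMT10plex mass spectrometry in mild NP-40 versus SDS extracts, three biological replicates.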
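For thermal stability score vs G1/S (z-score of summed log2 fold changes over temperatures) in this document: synchronized HeLa Kyoto cells, proteins quantified by TMT10plex mass spectrometry, three biological replicates, mitosis taken 0.5 h after nocodazole release, G1/S directly after double thymidine block.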

MYDNMSTMVYIKEDKLEKLTQDEIISKTKQVIQGLEALKNEHNSILQSLLETLKCLKKDDESNLVEEKSNMIRKSLEMLELGLSEAQVMMALSNHLNAVESEKQKLRAQVRRLCQENQWLRDELANTQQKLQKSEQSVAQLEEEKKHLEFMNQLKKYDDDISPSEDKDTDSTKEPLDDLFPNDEDDPGQGIQQQHSSAAAAAQQGGYEIPARLRTLHNLVIQYASQGRYEVAVPLCKQALEDLEKTSGHDHPDVATMLNILALVYRDQNKYKDAANLLNDALAIREKTLGKDHPAVAATLNNLAVLYGKRGKYKEAEPLCKRALEIREKVLGKDHPDVAKQLNNLALLCQNQGKYEEVEYYYQRALEIYQTKLGPDDPNVAKTKNNLASCYLKQGKFKQAETLYKEILTRAHEREFGSVDDENKPIWMHAEEREECKGKQKDGTSFGEYGGWYKACKVDSPTVTTTLKNLGALYRRQGKFEAAETLEEAAMRSRKQGLDNVHKQRVAEVLNDPENMEKRRSRESLNVDVVKYESGPDGGEEVSMSVEWNGGVSGRASFCGKRQQQQWPGRRHR [KLC1]
melting temperature ([1]; cell cycle stage: G1/S): 51.6 °C | melting temperature ([1]; cell cycle stage: mitosis): 51.4 °C | solubility change mitosis (log2) [2]: -0.175 | solubility in G1/S (log2) [3]: 0.299 | thermal stability score [4, 5]: 0.136 | thermal stability score ([4]; cell cycle stage: mitosis): 0.172

MIVQRVVLNSRPGKNGNPVAENFRMEEVYLPDNINEGQVQVRTLYLSVDPYMRCRMNEDTGTDYITPWQLSQVVDGGGIGIIEESKHTNLTKGDFVTSFYWPWQTKVILDGNSLEKVDPQLVDGHLSYFLGAIGMPGLTSLIGIQEKGHITAGSNKTMVVSGAAGACGSVAGQIGHFLGCSRVVGICGTHEKCILLTSELGFDAAINYKKDNVAEQLRESCPAGVDVYFDNVGGNISDTVISQMNENSHIILCGQISQYNKDVPYPPPLSPAIEAIQKERNITRERFLVLNYKDKFEPGILQLSQWFKEGKLKIKETVINGLENMGAAFQSMMTGGNIGKQIVCISEEISL [PTGR2]
melting temperature ([1]; cell cycle stage: G1/S): 50.5 °C | melting temperature ([1]; cell cycle stage: mitosis): 50.6 °C | solubility change mitosis (log2) [2]: -0.0529 | solubility in G1/S (log2) [3]: 0.0876 | thermal stability score [4, 5]: 0.0557 | thermal stability score ([4]; cell cycle stage: mitosis): -0.682

MMGLGNGRRSMKSPPLVLAALVACIIVLGFNYWIASSRSVDLQTRIMELEGRVRRAAAERGAVELKKNEFQGELEKQREQLDKIQSSHNFQLESVNKLYQDEKAVLVNNITTGERLIRVLQDQLKTLQRNYGRLQQDVLQFQKNQTNLERKFSYDLSQCINQMKEVKEQCEERIEEVTKKGNEAVASRDLSENNDQRQQLQALSEPQPRLQAAGLPHTEVPQGKGNVLGNSKSQTPAPSSEVVLDSKRQVEKEETNEIQVVNEEPQRDRLPQEPGREQVVEDRPVGGRGFGGAGELGQTPQVQAALSVSQENPEMEGPERDQLVIPDGQEEEQEAAGEGRNQQKLRGEDDYNMDENEAESETDKQAALAGNDRNIDVFNVEDQKRDTINLLDQREKRNHTL [GOLM1]
melting temperature ([1]; cell cycle stage: G1/S): 55.9 °C | melting temperature ([1]; cell cycle stage: mitosis): 59.3 °C | solubility change mitosis (log2) [2]: 0.556 | solubility in G1/S (log2) [3]: -0.0257 | thermal stability score [4, 5]: -2.29 | thermal stability score ([4]; cell cycle stage: mitosis): -1.82

GMPS
melting temperature ([1]; cell cycle stage: G1/S): 51.1 °C | melting temperature ([1]; cell cycle stage: mitosis): 51.6 °C | solubility change mitosis (log2) [2]: -0.148 | solubility in G1/S (log2) [3]: 0.0167 | thermal stability score [4, 5]: 2.38 | thermal stability score ([4]; cell cycle stage: mitosis): 1.21

MSRCAQAAEVAATVPGAGVGNVGLRPPMVPRQASFFPPPVPNPFVQQTQIGSARRVQIVLLGIILLPIRVLLVALILLLAWPFAAISTVCCPEKLTHPITGWRRKITQTALKFLGRAMFFSMGFIVAVKGKIASPLEAPVFVAAPHSTFFDGIACVVAGLPSMVSRNENAQVPLIGRLLRAVQPVLVSRVDPDSRKNTINEIIKRTTSGGEWPQILVFPEGTCTNRSCLITFKPGAFIPGVPVQPVLLRYPNKLDTVTWTWQGYTFIQLCMLTFCQLFTKVEVEFMPVQVPNDEEKNDPVLFANKVRNLMAEALGIPVTDHTYEDCRLMISAGQLTLPMEAGLVEFTKISRKLKLDWDGVRKHLDEYASIASSSKGGRIGIEEFAKYLKLPVSDVLRQLFALFDRNHDGSIDFREYVIGLAVLCNPSNTEEIIQVAFKLFDVDEDGYITEEEFSTILQASLGVPDLDVSGLFKEIAQGDSISYEEFKSFALKHPEYAKIFTTYLDLQTCHVFSLPKEVQTTPSTASNKVSPEKHEESTSDKKDD [LPCAT2]
melting temperature ([1]; cell cycle stage: G1/S): 51.3 °C | melting temperature ([1]; cell cycle stage: mitosis): 52.5 °C | solubility change mitosis (log2) [2]: -0.289 | solubility in G1/S (log2) [3]: -0.00721 | thermal stability score [4, 5]: 1.39 | thermal stability score ([4]; cell cycle stage: mitosis): 1.37

MSGDSSGRGPEGRGRGRDPHRDRTRSRSRSRSPLSPRSRRGSARERREAPERPSLEDTEPSDSGDEMMDPASLEAEADQGLCRQIRHQYRALINSVQQNREDILNAGDKLTEVLEEANTLFNEVSRAREAVLDAHFLVLASDLGKEKAKQLRSDLSSFDMLRYVETLLTHMGVNPLEAEELIRDEDSPDFEFIVYDSWKITGRTAENTFNKTHTFHFLLGSIYGECPVPKPRVDRPRKVPVIQEERAMPAQLRRMEESHQEATEKEVERILGLLQTYFREDPDTPMSFFDFVVDPHSFPRTVENIFHVSFIIRDGFARIRLDQDRLPVIEPVSINEENEGFEHNTQVRNQGIIALSYRDWEEIVKTFEISEPVITPSQRQQKPSA [NSMCE4A]
melting temperature ([1]; cell cycle stage: G1/S): 49.9 °C | melting temperature ([1]; cell cycle stage: mitosis): 50.2 °C | solubility change mitosis (log2) [2]: 0.00196 | solubility in G1/S (log2) [3]: 0.182 | thermal stability score [4, 5]: -2.46 | thermal stability score ([4]; cell cycle stage: mitosis): -1.49
